Test system: Escherichia coli TOP10
Assay: shrunken log2 fold change of peptide-encoding DNA abundance (4.5 h post-induction vs induction); higher = less antimicrobial activity (less host growth inhibition)
Conditions: time post-induction: 4.5 h; library: site-saturation at positions 5, 18, 19, 20
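Note: peptides expressed intracellularly from a pBAD plasmid library in pooled LB shake-flask culture, induced with 0.3% L-arabinose, DNA abundance read by NGS, three biological replicates, DESeq2 with apeglm shrinkage.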

Sequence	shrunken log2 fold change
RRIRWRPPRLPRPRPRPKRQPRP	0.167
RRIRKRPPRLPRPRPRPDVIPRP	0.153
RRIRNRPPRLPRPRPRPEVSPRP	-0.0183
RRIRPRPPRLPRPRPRPDHAPRP	0.218
RRIRVRPPRLPRPRPRPWNGPRP	-0.277
RRIRSRPPRLPRPRPRPKMFPRP	-0.00685
RRIRIRPPRLPRPRPRPFKPPRP	-0.395
RRIRARPPRLPRPRPRPDKYPRP	1.5
RRIRARPPRLPRPRPRPVECPRP	0.0527
RRIRHRPPRLPRPRPRPGKYPRP	-0.0822
RRIRLRPPRLPRPRPRPLKAPRP	-0.153
RRIRIRPPRLPRPRPRPVWEPRP	0.108
RRIRGRPPRLPRPRPRPWWCPRP	0.127
RRIRSRPPRLPRPRPRPHAPPRP	0.27
RRIRMRPPRLPRPRPRPPPQPRP	1.79
RRIRKRPPRLPRPRPRPYDMPRP	-0.0843
RRIRLRPPRLPRPRPRPVWHPRP	-0.047
RRIRPRPPRLPRPRPRPFKCPRP	-0.214
RRIRCRPPRLPRPRPRPFVVPRP	-0.633
RRIRYRPPRLPRPRPRPKEEPRP	-0.0656
RRIRCRPPRLPRPRPRPWSWPRP	0.0159
RRIRFRPPRLPRPRPRPYHIPRP	-0.081
RRIRHRPPRLPRPRPRPADAPRP	-0.0349
RRIRHRPPRLPRPRPRPMESPRP	0.00489
RRIRPRPPRLPRPRPRPSVNPRP	-0.44

Sequence	shrunken log2 fold change
RRIRARPPRLPRPRPRPVYPPRP	0.0412
RRIRCRPPRLPRPRPRPDWCPRP	0.27
RRIRWRPPRLPRPRPRPCGQPRP	0.137
RRIRHRPPRLPRPRPRPHCPPRP	-0.207
RRIRFRPPRLPRPRPRPLGGPRP	-0.235
RRIRSRPPRLPRPRPRPYSEPRP	-0.561
RRIRWRPPRLPRPRPRPFEYPRP	-0.331
RRIRTRPPRLPRPRPRPWRWPRP	0.554
RRIRVRPPRLPRPRPRPYGLPRP	-0.00518
RRIRARPPRLPRPRPRPHQGPRP	-0.0611
RRIRYRPPRLPRPRPRPFQNPRP	-0.0769
RRIRQRPPRLPRPRPRPHNIPRP	-0.076
RRIRHRPPRLPRPRPRPMFWPRP	0.0114
RRIRCRPPRLPRPRPRPPPPPRP	1.55
RRIRQRPPRLPRPRPRPGKVPRP	-0.0155
RRIRLRPPRLPRPRPRPDFTPRP	0.102
RRIRIRPPRLPRPRPRPLWEPRP	0.223
RRIRPRPPRLPRPRPRPQAHPRP	-0.243
RRIRTRPPRLPRPRPRPVYEPRP	0.00717
RRIRQRPPRLPRPRPRPMFEPRP	0.118
RRIRTRPPRLPRPRPRPDQWPRP	-0.00805
RRIRYRPPRLPRPRPRPGAYPRP	-0.292
RRIRGRPPRLPRPRPRPAGPPRP	0.644
RRIRNRPPRLPRPRPRPYGEPRP	-0.16
RRIRCRPPRLPRPRPRPFCNPRP	-0.428

Sequence	shrunken log2 fold change
RRIRWRPPRLPRPRPRPKGSPRP	0.0359
RRIRWRPPRLPRPRPRPVGTPRP	0.235
RRIRIRPPRLPRPRPRPPWVPRP	0.0988
RRIRNRPPRLPRPRPRPILMPRP	-0.0495
RRIRGRPPRLPRPRPRPSALPRP	1.38
RRIRDRPPRLPRPRPRPIGFPRP	0.0229
RRIRARPPRLPRPRPRPKPSPRP	0.524
RRIRDRPPRLPRPRPRPKLQPRP	0.08
RRIRGRPPRLPRPRPRPEKQPRP	0.034
RRIRGRPPRLPRPRPRPYAVPRP	2.53
RRIRARPPRLPRPRPRPLGWPRP	0.951
RRIRLRPPRLPRPRPRPAQHPRP	-0.132
RRIRRRPPRLPRPRPRPAENPRP	0.0557
RRIRTRPPRLPRPRPRPCDGPRP	0.134
RRIRCRPPRLPRPRPRPYEFPRP	-0.0684
RRIRLRPPRLPRPRPRPIKRPRP	-0.466
RRIRSRPPRLPRPRPRPCDDPRP	0.161
RRIRNRPPRLPRPRPRPGTEPRP	-0.145
RRIRERPPRLPRPRPRPMREPRP	0.992
RRIRKRPPRLPRPRPRPCRTPRP	0.0438
RRIRSRPPRLPRPRPRPGEPPRP	-0.054
RRIRCRPPRLPRPRPRPFCAPRP	-0.00432
RRIRRRPPRLPRPRPRPIRTPRP	0.4
RRIRTRPPRLPRPRPRPDNSPRP	-0.0647
RRIRCRPPRLPRPRPRPHVDPRP	-0.617

— the supplement of paper PMC9112550, “Optimization of the antimicrobial peptide Bac7 by deep mutational scanning” (BMC Biology, 2022)
